Assay results published in patent publication US20160272683A1 (Novo Nordisk, published 2016).
Numbered stars: 1 amine (or outer) side, 2 acyl side, 3 side chain; on linkers, the order of the positions; unused ones are H or OH. * marks the point of attachment. C20 diacid = O=C(O)CCCCCCCCCCCCCCCCCCC(=O)*; C18 diacid = O=C(O)CCCCCCCCCCCCCCCCC(=O)*; γGlu = O=C(O)[C@H](CCC(=O)[*:2])N[*:1]; C14 diacid = O=C(O)CCCCCCCCCCCCC(=O)*

T1: human amylin receptor (human calcitonin receptor + human RAMP3) (human) (UniProt P30988)
T1 sequence (looked up) 1: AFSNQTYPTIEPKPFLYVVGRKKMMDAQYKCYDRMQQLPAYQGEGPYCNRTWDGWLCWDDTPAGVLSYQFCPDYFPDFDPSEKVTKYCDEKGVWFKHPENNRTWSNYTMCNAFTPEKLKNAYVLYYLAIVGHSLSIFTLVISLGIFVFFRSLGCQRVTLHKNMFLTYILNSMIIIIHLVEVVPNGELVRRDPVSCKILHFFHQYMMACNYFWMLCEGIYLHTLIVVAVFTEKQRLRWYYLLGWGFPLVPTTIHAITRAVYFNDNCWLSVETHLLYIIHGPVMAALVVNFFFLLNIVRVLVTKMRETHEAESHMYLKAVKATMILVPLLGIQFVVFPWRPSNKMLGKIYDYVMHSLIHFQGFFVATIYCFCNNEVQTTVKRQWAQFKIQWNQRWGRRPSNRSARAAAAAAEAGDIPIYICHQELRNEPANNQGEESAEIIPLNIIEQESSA
T1 sequence (looked up) 2: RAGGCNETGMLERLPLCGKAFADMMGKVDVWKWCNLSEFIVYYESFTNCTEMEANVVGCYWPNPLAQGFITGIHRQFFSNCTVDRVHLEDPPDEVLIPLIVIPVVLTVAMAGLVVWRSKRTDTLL

B1: [N-terminal(C18 diacid), 6H]mimylin (peptide)
peptide: {C18 diacid}-EASELHTAALGRLSAELHELATLPRTETGPESP-NH2
SMILES: CC(C)C[C@H](NC(=O)[C@H](C)NC(=O)[C@H](C)NC(=O)[C@@H](NC(=O)[C@H](Cc1c[nH]cn1)NC(=O)[C@H](CC(C)C)NC(=O)[C@H](CCC(=O)O)NC(=O)[C@H](CO)NC(=O)[C@H](C)NC(=O)[C@H](CCC(=O)O)NC(=O)CCCCCCCCCCCCCCCCC(=O)O)[C@@H](C)O)C(=O)NCC(=O)N[C@@H](CCCNC(=N)N)C(=O)N[C@@H](CC(C)C)C(=O)N[C@@H](CO)C(=O)N[C@@H](C)C(=O)N[C@@H](CCC(=O)O)C(=O)N[C@@H](CC(C)C)C(=O)N[C@@H](Cc1c[nH]cn1)C(=O)N[C@@H](CCC(=O)O)C(=O)N[C@@H](CC(C)C)C(=O)N[C@@H](C)C(=O)N[C@H](C(=O)N[C@@H](CC(C)C)C(=O)N1CCC[C@H]1C(=O)N[C@@H](CCCNC(=N)N)C(=O)N[C@H](C(=O)N[C@@H](CCC(=O)O)C(=O)N[C@H](C(=O)NCC(=O)N1CCC[C@H]1C(=O)N[C@@H](CCC(=O)O)C(=O)N[C@@H](CO)C(=O)N1CCC[C@H]1C(N)=O)[C@@H](C)O)[C@@H](C)O)[C@@H](C)O
B2: [N-terminal(C18 diacid), 32H]mimylin (peptide)
peptide: {C18 diacid}-EASELSTAALGRLSAELHELATLPRTETGPEHP-NH2
SMILES: CC(C)C[C@H](NC(=O)[C@H](C)NC(=O)[C@H](C)NC(=O)[C@@H](NC(=O)[C@H](CO)NC(=O)[C@H](CC(C)C)NC(=O)[C@H](CCC(=O)O)NC(=O)[C@H](CO)NC(=O)[C@H](C)NC(=O)[C@H](CCC(=O)O)NC(=O)CCCCCCCCCCCCCCCCC(=O)O)[C@@H](C)O)C(=O)NCC(=O)N[C@@H](CCCNC(=N)N)C(=O)N[C@@H](CC(C)C)C(=O)N[C@@H](CO)C(=O)N[C@@H](C)C(=O)N[C@@H](CCC(=O)O)C(=O)N[C@@H](CC(C)C)C(=O)N[C@@H](Cc1c[nH]cn1)C(=O)N[C@@H](CCC(=O)O)C(=O)N[C@@H](CC(C)C)C(=O)N[C@@H](C)C(=O)N[C@H](C(=O)N[C@@H](CC(C)C)C(=O)N1CCC[C@H]1C(=O)N[C@@H](CCCNC(=N)N)C(=O)N[C@H](C(=O)N[C@@H](CCC(=O)O)C(=O)N[C@H](C(=O)NCC(=O)N1CCC[C@H]1C(=O)N[C@@H](CCC(=O)O)C(=O)N[C@@H](Cc1c[nH]cn1)C(=O)N1CCC[C@H]1C(N)=O)[C@@H](C)O)[C@@H](C)O)[C@@H](C)O
B3: [N-terminal(C18 diacid), 5I, 9I]mimylin (peptide)
peptide: {C18 diacid}-EASEISTAILGRLSAELHELATLPRTETGPESP-NH2
SMILES: CC[C@H](C)[C@H](NC(=O)[C@H](C)NC(=O)[C@@H](NC(=O)[C@H](CO)NC(=O)[C@@H](NC(=O)[C@H](CCC(=O)O)NC(=O)[C@H](CO)NC(=O)[C@H](C)NC(=O)[C@H](CCC(=O)O)NC(=O)CCCCCCCCCCCCCCCCC(=O)O)[C@@H](C)CC)[C@@H](C)O)C(=O)N[C@@H](CC(C)C)C(=O)NCC(=O)N[C@@H](CCCNC(=N)N)C(=O)N[C@@H](CC(C)C)C(=O)N[C@@H](CO)C(=O)N[C@@H](C)C(=O)N[C@@H](CCC(=O)O)C(=O)N[C@@H](CC(C)C)C(=O)N[C@@H](Cc1c[nH]cn1)C(=O)N[C@@H](CCC(=O)O)C(=O)N[C@@H](CC(C)C)C(=O)N[C@@H](C)C(=O)N[C@H](C(=O)N[C@@H](CC(C)C)C(=O)N1CCC[C@H]1C(=O)N[C@@H](CCCNC(=N)N)C(=O)N[C@H](C(=O)N[C@@H](CCC(=O)O)C(=O)N[C@H](C(=O)NCC(=O)N1CCC[C@H]1C(=O)N[C@@H](CCC(=O)O)C(=O)N[C@@H](CO)C(=O)N1CCC[C@H]1C(N)=O)[C@@H](C)O)[C@@H](C)O)[C@@H](C)O
B4: [N-terminal(C18 diacid), 5V, 9V]mimylin (peptide)
peptide: {C18 diacid}-EASEVSTAVLGRLSAELHELATLPRTETGPESP-NH2
SMILES: CC(C)C[C@H](NC(=O)[C@H](CCC(=O)O)NC(=O)[C@H](Cc1c[nH]cn1)NC(=O)[C@H](CC(C)C)NC(=O)[C@H](CCC(=O)O)NC(=O)[C@H](C)NC(=O)[C@H](CO)NC(=O)[C@H](CC(C)C)NC(=O)[C@H](CCCNC(=N)N)NC(=O)CNC(=O)[C@H](CC(C)C)NC(=O)[C@@H](NC(=O)[C@H](C)NC(=O)[C@@H](NC(=O)[C@H](CO)NC(=O)[C@@H](NC(=O)[C@H](CCC(=O)O)NC(=O)[C@H](CO)NC(=O)[C@H](C)NC(=O)[C@H](CCC(=O)O)NC(=O)CCCCCCCCCCCCCCCCC(=O)O)C(C)C)[C@@H](C)O)C(C)C)C(=O)N[C@@H](C)C(=O)N[C@H](C(=O)N[C@@H](CC(C)C)C(=O)N1CCC[C@H]1C(=O)N[C@@H](CCCNC(=N)N)C(=O)N[C@H](C(=O)N[C@@H](CCC(=O)O)C(=O)N[C@H](C(=O)NCC(=O)N1CCC[C@H]1C(=O)N[C@@H](CCC(=O)O)C(=O)N[C@@H](CO)C(=O)N1CCC[C@H]1C(N)=O)[C@@H](C)O)[C@@H](C)O)[C@@H](C)O
B5: [N-terminal(C18 diacid), 8L]mimylin (peptide)
peptide: {C18 diacid}-EASELSTLALGRLSAELHELATLPRTETGPESP-NH2
SMILES: CC(C)C[C@H](NC(=O)[C@H](C)NC(=O)[C@H](CC(C)C)NC(=O)[C@@H](NC(=O)[C@H](CO)NC(=O)[C@H](CC(C)C)NC(=O)[C@H](CCC(=O)O)NC(=O)[C@H](CO)NC(=O)[C@H](C)NC(=O)[C@H](CCC(=O)O)NC(=O)CCCCCCCCCCCCCCCCC(=O)O)[C@@H](C)O)C(=O)NCC(=O)N[C@@H](CCCNC(=N)N)C(=O)N[C@@H](CC(C)C)C(=O)N[C@@H](CO)C(=O)N[C@@H](C)C(=O)N[C@@H](CCC(=O)O)C(=O)N[C@@H](CC(C)C)C(=O)N[C@@H](Cc1c[nH]cn1)C(=O)N[C@@H](CCC(=O)O)C(=O)N[C@@H](CC(C)C)C(=O)N[C@@H](C)C(=O)N[C@H](C(=O)N[C@@H](CC(C)C)C(=O)N1CCC[C@H]1C(=O)N[C@@H](CCCNC(=N)N)C(=O)N[C@H](C(=O)N[C@@H](CCC(=O)O)C(=O)N[C@H](C(=O)NCC(=O)N1CCC[C@H]1C(=O)N[C@@H](CCC(=O)O)C(=O)N[C@@H](CO)C(=O)N1CCC[C@H]1C(N)=O)[C@@H](C)O)[C@@H](C)O)[C@@H](C)O
B6: [N-terminal(C18 diacid-gGlu), des1, 30S]mimylin (peptide)
peptide: {C18 diacid-γGlu}-ASELSTAALGRLSAELHELATLPRTETGSESP-NH2
SMILES: CC(C)C[C@H](NC(=O)[C@H](C)NC(=O)[C@H](C)NC(=O)[C@@H](NC(=O)[C@H](CO)NC(=O)[C@H](CC(C)C)NC(=O)[C@H](CCC(=O)O)NC(=O)[C@H](CO)NC(=O)[C@H](C)NC(=O)CC[C@H](NC(=O)CCCCCCCCCCCCCCCCC(=O)O)C(=O)O)[C@@H](C)O)C(=O)NCC(=O)N[C@@H](CCCNC(=N)N)C(=O)N[C@@H](CC(C)C)C(=O)N[C@@H](CO)C(=O)N[C@@H](C)C(=O)N[C@@H](CCC(=O)O)C(=O)N[C@@H](CC(C)C)C(=O)N[C@@H](Cc1c[nH]cn1)C(=O)N[C@@H](CCC(=O)O)C(=O)N[C@@H](CC(C)C)C(=O)N[C@@H](C)C(=O)N[C@H](C(=O)N[C@@H](CC(C)C)C(=O)N1CCC[C@H]1C(=O)N[C@@H](CCCNC(=N)N)C(=O)N[C@H](C(=O)N[C@@H](CCC(=O)O)C(=O)N[C@H](C(=O)NCC(=O)N[C@@H](CO)C(=O)N[C@@H](CCC(=O)O)C(=O)N[C@@H](CO)C(=O)N1CCC[C@H]1C(N)=O)[C@@H](C)O)[C@@H](C)O)[C@@H](C)O
B7: [N-terminal(C18 diacid), 5H]mimylin (peptide)
peptide: {C18 diacid}-EASEHSTAALGRLSAELHELATLPRTETGPESP-NH2
SMILES: CC(C)C[C@H](NC(=O)[C@H](C)NC(=O)[C@H](C)NC(=O)[C@@H](NC(=O)[C@H](CO)NC(=O)[C@H](Cc1c[nH]cn1)NC(=O)[C@H](CCC(=O)O)NC(=O)[C@H](CO)NC(=O)[C@H](C)NC(=O)[C@H](CCC(=O)O)NC(=O)CCCCCCCCCCCCCCCCC(=O)O)[C@@H](C)O)C(=O)NCC(=O)N[C@@H](CCCNC(=N)N)C(=O)N[C@@H](CC(C)C)C(=O)N[C@@H](CO)C(=O)N[C@@H](C)C(=O)N[C@@H](CCC(=O)O)C(=O)N[C@@H](CC(C)C)C(=O)N[C@@H](Cc1c[nH]cn1)C(=O)N[C@@H](CCC(=O)O)C(=O)N[C@@H](CC(C)C)C(=O)N[C@@H](C)C(=O)N[C@H](C(=O)N[C@@H](CC(C)C)C(=O)N1CCC[C@H]1C(=O)N[C@@H](CCCNC(=N)N)C(=O)N[C@H](C(=O)N[C@@H](CCC(=O)O)C(=O)N[C@H](C(=O)NCC(=O)N1CCC[C@H]1C(=O)N[C@@H](CCC(=O)O)C(=O)N[C@@H](CO)C(=O)N1CCC[C@H]1C(N)=O)[C@@H](C)O)[C@@H](C)O)[C@@H](C)O

Biological target: T1, human amylin receptor (human calcitonin receptor + human RAMP3) (human)
Assay: whole-cell competition vs 125I-rat amylin (Assay Va)

Point of comparison: B2, IC50 1.26 nM. Against it:
- B1 — within 1.5-fold, 1.31 nM
- {C20 diacid}-EASELSTAALGRLSAELHELATLPRTETGSGSP-NH2 [[N-terminal(C20 diacid), 30S, 31G]mimylin] — 5.2-fold lower, 0.24 nM
- B3 — 3.1-fold lower, 0.4 nM
- B4 — 1.5-fold lower, 0.824 nM
- B5 — 4.6-fold lower, 0.275 nM
- {C14 diacid-γGlu}-ASELSTAALGRLSAELHELATLPRTETGPESP-NH2 [[N-terminal(C14 diacid-gGlu), des1]mimylin] — within 1.5-fold, 1.14 nM
- B6 — 1.5-fold lower, 0.83 nM
- {C18 diacid}-EASELSTAALGRLSAELHELATLPRTETGSGSP-NH2 [[N-terminal(C18 diacid), 30S, 31G]mimylin] — 6.7-fold lower, 0.187 nM
- B7 — 1.5-fold lower, 0.832 nM
